Test results as given in the supplement of paper PMC10724198.
± gives the standard deviation of the averaged measurements.

Test system: Saccharomyces cerevisiae
Test: protein stability index of tFT-peptide fusion (C-terminal peptide) (PSI (0-1 scale)); higher = more stable (slower turnover)
Details: genetic background: wild type; temperature: 30 C
Protocol: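 Multiplexed protein stability (MPS) profiling in S. cerevisiae. Random 12-aa peptides (tFT-X12 library) are fused to the C-terminus of a sfGFP-mCherry tandem fluorescent timer, after mCherry and a GGGS linker. Cells are FACS-sorted into 8 mCherry/sfGFP bins and deep-sequenced. The protein stability index (PSI) is the read-weighted bin average, scaled from 0 (unstable) to 1 (stable). Only peptides with >10 reads are reported; cells were grown at 30 °C in SC-His with glucose.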
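Also: PSI is a weighted mean of sequencing reads over stability bins, variants kept only with over 10 reads, mCherry proximal and sfGFP distal, peptide attached via GGGS linker.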

Sequence | protein stability index
GPCSSMFGLRYT | 0.672 ± 0.033
GPDSSYLITPRR | 0.755 ± 0.065
GPEAVARIFDDE | 0.708 ± 0.0095
GPFHILSSATRP | 0.705 ± 0.054
GPGGVGVTSGGK | 0.679 ± 0.062
GPGSCPVRLCGF | 0.661 ± 0.0074
GPGVFGGFRTEK | 0.648 ± 0.056
GPLVGGDGRWVG | 0.706 ± 0.011
GPPPAWALCYPL | 0.601 ± 0.023
GPPPLRLWPLPV | 0.618 ± 0.079
GPPPPLFAPWPF | 0.656 ± 0.027
GPPRDLARKAGL | 0.708 ± 0.065
GPRGGRLSWAPG | 0.62172 ± 0.00044
GPRVLCNCHLRD | 0.688 ± 0.0083
GPSATPPGPGLR | 0.792 ± 0.052
GPSVWRPSESLV | 0.748 ± 0.03
GPTPPRSPPAVS | 0.646 ± 0.055
GPTPSVKGDRDT | 0.632 ± 0.044
GPVAYSMDILVE | 0.66 ± 0.058
GPVHVRGVGFGF | 0.73 ± 0.02
GPVRIDSPFKSA | 0.733 ± 0.017
GPVVAGRLWLWV | 0.641 ± 0.046
GQCHYSSFPVRQ | 0.732 ± 0.011
GQCRTELVGLWE | 0.664 ± 0.13
GQEGQIPPGNVH | 0.709 ± 0.011
GQIVFDNSGSRW | 0.6955 ± 0.0028

Sequence | protein stability index
GQKKARGRGGGM | 0.737 ± 0.0077
GQRKQKIKKKRK | 0.647 ± 0.16
GQRTKSHSRGGP | 0.648 ± 0.025
GQVACLVSREYT | 0.69 ± 0.018
GQVCSWRCVCYL | 0.6741 ± 0.0065
GRAVPKTHPGNL | 0.7686 ± 0.0037
GRCIQHPYKVNI | 0.679 ± 0.017
GRDFASNFRQLG | 0.718 ± 0.026
GRDKLNEDRDKV | 0.647 ± 0.0095
GRDPARPRPLAP | 0.677 ± 0.046
GREEKQGAENRT | 0.65 ± 0.018
GRFVTRAWARSW | 0.639 ± 0.018
GRGEIQDRRCRG | 0.668 ± 0.049
GRGFGFDITISS | 0.712 ± 0.098
GRGGIGDGGPVW | 0.6395 ± 0.00092
GRGGYGKESLYC | 0.627 ± 0.031
GRGRFMPRDWYW | 0.708 ± 0.028
GRGSGIAMGVWV | 0.801 ± 0.19
GRGVQWRAVGWE | 0.748 ± 0.041
GRGVVGLWVSGT | 0.699 ± 0.021
GRGWGWALGWCG | 0.698 ± 0.0095
GRIMRVPNENLT | 0.696 ± 0.22
GRKGVIAELIKI | 0.659 ± 0.11
GRKTRSPFLVLM | 0.5707 ± 0.002
GRLRLDAAGCMW | 0.675 ± 0.048
GRNCGHSCANRP | 0.696 ± 0.027

Sequence | protein stability index
GRPFCLGVKMFL | 0.673 ± 0.035
GRPGPSSPFLLP | 0.702 ± 0.052
GRQKIESSEAQT | 0.666 ± 0.022
GRRAGGTGAPSR | 0.642 ± 0.016
GRRDVTFGTAFF | 0.753 ± 0.052
GRRGGRLSWAPG | 0.659 ± 0.017
GRRHNPRTSSAQ | 0.756 ± 0.075
GRRLVHKVDWSL | 0.666 ± 0.043
GRRNVGLKNSGL | 0.645 ± 0.028
GRRRGGAVVEGV | 0.678 ± 0.01
GRRVRAPADFKS | 0.587 ± 0.02
GRSMWFIEFGLG | 0.7578 ± 0.0057
GRSQGIWVSRGE | 0.683 ± 0.028
GRTFPLATAPFL | 0.687 ± 0.085
GRVFRGRNGRCM | 0.7443 ± 0.0067
GRWEGLRGLGVG | 0.647 ± 0.012
GRWRVLREVGAS | 0.664 ± 0.01
GRYLIGKNKRVI | 0.687 ± 0.011
GSAGSAVRNVVS | 0.647 ± 0.051
GSANIDQEGVQY | 0.781 ± 0.091
GSFPPPARARLS | 0.677 ± 0.025
GSFPRLPPSKSF | 0.724 ± 0.14
GSFYGAVYVVPV | 0.669 ± 0.03
GSGDRSGCGWRG | 0.678 ± 0.025
GSGELYMGRLVE | 0.676 ± 0.047
GSGTTGSLSYGV | 0.695 ± 0.02

Sequence | protein stability index
GSIVVVGVVEGG | 0.729 ± 0.066
GSIWGVGWGQGV | 0.682 ± 0.11
GSLFVNRNCTVS | 0.697 ± 0.19
GSLPQLRAACRA | 0.566 ± 0.023
GSMRRSSVTLSA | 0.709 ± 0.065
GSMTGYVRVGEG | 0.57 ± 0.0064
GSNMTQAMTAGG | 0.656 ± 0.027
GSNQRRKGEHKP | 0.623 ± 0.036
GSNQYLNNTYLI | 0.64768 ± 0.00039
GSPSPLIALSRK | 0.689 ± 0.0073
GSRGGVAYGRVG | 0.741 ± 0.04
GSRGHLGRGGPG | 0.727 ± 0.017
GSRSGPARTTGR | 0.668 ± 0.024
GSRTHSMEDTTG | 0.646 ± 0.0098
GSSPPSARVRLF | 0.763 ± 0.03
GSSPVWRVAGAG | 0.721 ± 0.061
GSSRRWPGGRTI | 0.671 ± 0.073
GSSVRGSLGREI | 0.711 ± 0.028
GSVGFRTGRHLV | 0.615 ± 0.063
GSVLFPLPFRPF | 0.64 ± 0.11
GSVNGDTVGTQQ | 0.708 ± 0.013
GSVSGCVGVMRG | 0.641 ± 0.01
GSWRSFHVWYNS | 0.571 ± 0.042
GTAFDGGELSEG | 0.739 ± 0.045
GTGSEGVALRSG | 0.6697 ± 0.001
GTGSVHYHRSGL | 0.676 ± 0.016

Sequence | protein stability index
GTGTNGPSSAKL | 0.7399 ± 0.0056
GTHGVGGNIDLT | 0.648 ± 0.013
GTLGYALPTPYE | 0.6736 ± 0.0059
GTQSGGGGGKGG | 0.683 ± 0.044
GTRGVFEVCMDG | 0.704 ± 0.025
GTYGLCVWGRYL | 0.633 ± 0.056
GTYPGAGWRYEW | 0.694 ± 0.037
GVAGWGTVVGAQ | 0.712 ± 0.07
GVAISSGNHINH | 0.654 ± 0.12
GVAWGSGVGMMW | 0.718 ± 0.029
GVCAVCRLGLVA | 0.5574 ± 0.00072
GVCGGVGGWGVA | 0.698 ± 0.019
GVCPPAGDAGGV | 0.711 ± 0.018
GVEGDPESKGRV | 0.696 ± 0.068
GVFEGLVYGGLC | 0.719 ± 0.012
GVFVVGLSCSLR | 0.5521 ± 0.0048
GVGAERCFVGVV | 0.681 ± 0.077
GVGCVGGGSSCA | 0.67 ± 0.1
GVGFRVVRTSGR | 0.6859 ± 0.0018
GVGRGGAVENKV | 0.742 ± 0.054
GVGVGDCVRCMV | 0.619 ± 0.008
GVGWPGVGAGGG | 0.635 ± 0.05
GVGWQSPGVLVL | 0.605 ± 0.017
GVIGGLRAGVGG | 0.719 ± 0.079
GVLGWTRFRSCS | 0.715 ± 0.077
GVLLWWGRRRGE | 0.7224 ± 0.0048

Sequence | protein stability index
GVLWCGYGVGGG | 0.762 ± 0.11
GVNGSGFLSEVI | 0.6795 ± 0.0012
GVPGQFVSENII | 0.679 ± 0.027
GVQDVRAGLLEY | 0.676 ± 0.037
GVQFSVWCGSVG | 0.7 ± 0.04
GVRCVQGTVTGR | 0.7 ± 0.099
GVREGCRGGVGA | 0.625 ± 0.052
GVRGCGMTADVF | 0.668 ± 0.008
GVRGGCDRGEVG | 0.604 ± 0.046
GVRPWGGMCSCL | 0.7046 ± 0.0024
GVRSGAGGQGVG | 0.708 ± 0.069
GVSGQGLVAVEV | 0.59 ± 0.035
GVVALFLYLLVL | 0.494 ± 0.02
GVVERGRRAGEG | 0.659 ± 0.028
GVVGKDEGRSRA | 0.797 ± 0.038
GVVMLSDDGSAW | 0.718 ± 0.026
GVVSVFVGSLGG | 0.699 ± 0.067
GVVVVVVGRGLG | 0.574 ± 0.018
GVVWMSCGGGWG | 0.7543 ± 0.0068
GVVWMSCGGWWG | 0.7545 ± 0.0042
GVVWMSGGGWWG | 0.761 ± 0.03
GVWCFPVGVFRA | 0.529 ± 0.011
GVWGVGGGGGGR | 0.634 ± 0.088
GVWRCGVVGLSL | 0.665 ± 0.038
GVWSLVGRGGEG | 0.621 ± 0.017
